# US20120231013A1 (Amgen, published 2012)
# Positions count from the first letter of the chain named. “And” between values parts separate entries of the source, which are not always exact repeats. Equal values may be shown once.
# T1: recombinant mouse TIMP-3 (mouse, UniProt P39876 24-211)
# T1 construct: also called MuTIMP-3
# T1 sequence (looked up): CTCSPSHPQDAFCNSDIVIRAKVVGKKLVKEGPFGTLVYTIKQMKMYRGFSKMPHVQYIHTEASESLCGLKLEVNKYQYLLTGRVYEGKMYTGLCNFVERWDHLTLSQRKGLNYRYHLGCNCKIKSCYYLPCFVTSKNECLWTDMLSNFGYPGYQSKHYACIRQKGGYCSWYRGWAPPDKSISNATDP
# B1: recombinant human TIMP-3 (other, UniProt P35625 24-211, looked up)
# chain: T1 sequence (looked up) with S51T, E87D, H103Q, S183I
# B2: LRP-1 peptide LA24-26 (peptide)
# chain: not shown
# notes: The end 3574 is inferred from the end of LA26
# Tests used:
# MMP-13 [1] = target: T2, MMP-13 (UniProt P45452 20-471, limits assumed); assay: cell-based or functional assay
# [2] = target: T3, recombinant TIMP-3 (human or mouse; Table 2 does not say which); assay: binding ELISA, Assay 1
# T3 construct: The methods say 'human or mouse TIMP-3'
# [3] = target: T3, recombinant TIMP-3 (human or mouse; …); assay: binding ELISA, Assay 2
# [4] = target: T3, recombinant TIMP-3 (human or mouse; …); assay: binding ELISA, Assay 3
# recombinant human TIMP-3 [5] = target: B1; assay: cell-based or functional assay
# MMP-13 [6] = target: T2, MMP-13; assay: cell-based or functional assay; remark: listed apart in the source
# recombinant human TIMP-3 [7] = target: B1; assay: direct ELISA, coated huTIMP-3
# recombinant mouse TIMP-3 = target: T1, recombinant mouse TIMP-3; assay: direct ELISA, coated muTIMP-3
# [8] = target: T3, recombinant TIMP-3 (human or mouse; …); assay: AlphaScreen, biotinylated TIMP-3, Assay 1
# [9] = target: T3, recombinant TIMP-3 (human or mouse; …); assay: AlphaScreen, biotinylated TIMP-3, Assay 2
# Experimental: Peptides were also evaluated by AlphaScreen® (Amplified Luminescent Proximity Homogeneous Assay; PerkinElmer, Waltham, Mass.) a very sensitive non-radioactive homogeneous assay technology that allows the screening of a large range of biological interactions and activities, substantially according to the manufacturer's instructions. Briefly, all dilutions are made in AlphaScreen® Buffer: [40 mM HEPES pH 7.5, 100 mM NaCl, 1 mM CaCl2, 0.1% BSA, 0.05% Tween-20]. The LRP-1 peptides are titrated in a separate polypropylene 96-well plate (Falcon) starting at 4 microM concentration and then diluted serially 3-fold for 12-points, with the last point buffer only. First 2 microL/well of protein titration curve is added to white, small volume, 384-well assay plate (Greiner Bio-One, Stonehouse, UK) in duplicate. Next, 2 microL of biotinylated (AFS, in-house conjmicroGation) recombinant human or mouse TIMP-3, is added at 12 nM (or 3 nM final assay concentration) to the assay plate. Lastly, in subdued light 4 microL of a mixture of streptavidin donor beads, anti-mouse IgG acceptor beads (PerkinElmer) both diluted to 20 microG/mL (10 microG/mL final assay concentration) and 2 nM (1 nM final concentration) rat-anti-HA (clone3F10)-HRP (Roche Diagnostics) is added to the plates. Plates containing 8 microL final assay volme are covered with TopSeal A (to prevent evaporation), spun quickly at 1000 rpm, and incubated overnight (covered with foil to prevent light exposure) before reading on Fusion plate reader (PerkinElmer) using AlphaScreen® parameters (excitation 680 nm and emission 520-620 nm). Data is analyzed using GraphPad Prism 4.01 software. Binding to TIMP-3 is reported as total signal (cps).
# recombinant human TIMP-3 [10] = target: B1; assay: indirect ELISA, huTIMP-3 captured by anti-TIMP-3 clone 277128
# How it was run: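 Recombinant human TIMP-3 (20 nM), captured on anti-TIMP-3 antibody plates blocked with 1% BSA in TBS pH 7.5/1 mM CaCl2, bound titrated LRP-1 peptides for 1.5 h at room temperature. TMB/H2O2 development read at OD450, and binding reported as EC50.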
Binder,IC50 of TIMP-3 inhibition of MMP-13 (fluorogenic substrate) (MMP-13 [1]),EC50 [2],EC50 [3],EC50 [4],"% of the inhibitory activity of TIMP-3 + peptide compared to TIMP-3 alone, 16 nM (recombinant human TIMP-3 [5])","% of the inhibitory activity of TIMP-3 + peptide compared to TIMP-3 alone, 80 nM (recombinant human TIMP-3 [5])","% of the inhibitory activity of TIMP-3 + peptide compared to TIMP-3 alone, 400 nM (recombinant human TIMP-3 [5])","Direct Inhibition of MMP13 (% decrease), 1000 nM (MMP-13 [6])",EC50 (recombinant human TIMP-3 [7]),EC50 (recombinant mouse TIMP-3),total signal (cps) [8],total signal (cps) [9],EC50 (recombinant human TIMP-3 [10])
B1,0.0005 to 0.001 µM,,,,,,,,,,,,
B2,,0.046 µM and 0.026 µM,0.08 µM,0.068 µM,92%,95%,105%,59%,0.028 µM,0.015 µM,150000 cps,120000 cps,0.008 µM
